Reference: patent publication US20150203575A1 (Genentech, published 2015)

T1: mouse CD99 expressed on 293T cells (mouse, UniProt Q8VCN6 29-175, sialylated O-glycans at Thr-45 and Thr-50 (cited as relevant for PILRα recognition))
T1 construct: whole, on cells; also called mCD99; mCD99 transfectants
T1 sequence (looked up): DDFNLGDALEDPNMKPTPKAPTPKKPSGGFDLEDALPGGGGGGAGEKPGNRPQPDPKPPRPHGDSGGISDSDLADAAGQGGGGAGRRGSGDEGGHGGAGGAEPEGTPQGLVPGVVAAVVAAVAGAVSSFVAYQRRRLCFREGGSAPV

T2: human NPDC1 expressed on cells (human, UniProt Q9NQX5 35-325)
T2 construct: also called hNPDC1; hNPCD1
T2 sequence: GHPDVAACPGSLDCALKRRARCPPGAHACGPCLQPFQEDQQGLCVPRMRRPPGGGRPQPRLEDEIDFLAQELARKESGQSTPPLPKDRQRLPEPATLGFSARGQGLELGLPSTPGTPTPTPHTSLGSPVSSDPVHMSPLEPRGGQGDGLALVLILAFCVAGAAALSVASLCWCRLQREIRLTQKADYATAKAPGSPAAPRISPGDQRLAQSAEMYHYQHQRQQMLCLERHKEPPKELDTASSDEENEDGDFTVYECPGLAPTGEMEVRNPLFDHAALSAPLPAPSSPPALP

T3: IL-2Ra expressed on cells (human, UniProt P01589 22-272)
T3 construct: Clone of the Origene human cDNA library; also called Interleukin 2 receptor alpha
T3 sequence: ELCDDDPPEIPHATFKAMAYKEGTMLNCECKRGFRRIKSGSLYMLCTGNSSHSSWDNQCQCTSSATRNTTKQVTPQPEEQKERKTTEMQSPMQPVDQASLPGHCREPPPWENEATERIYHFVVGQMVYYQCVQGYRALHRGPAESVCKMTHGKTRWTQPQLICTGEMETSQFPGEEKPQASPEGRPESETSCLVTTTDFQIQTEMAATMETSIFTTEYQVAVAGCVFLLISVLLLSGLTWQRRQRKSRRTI

T4: BR3 expressed on cells (human, UniProt Q96RJ3 1-184)
T4 construct: Clone of the Origene human cDNA library
T4 sequence: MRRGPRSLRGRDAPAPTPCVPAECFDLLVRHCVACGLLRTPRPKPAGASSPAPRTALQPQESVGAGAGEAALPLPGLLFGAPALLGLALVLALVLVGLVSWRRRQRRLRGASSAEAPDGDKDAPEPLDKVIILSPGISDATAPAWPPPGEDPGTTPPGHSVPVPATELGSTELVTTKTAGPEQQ

T5: PTPRN expressed on cells (human, UniProt Q16849 35-979)
T5 construct: Clone of the Origene human cDNA library; also called Protein tyrosine phosphatase receptor-type N
T5 sequence: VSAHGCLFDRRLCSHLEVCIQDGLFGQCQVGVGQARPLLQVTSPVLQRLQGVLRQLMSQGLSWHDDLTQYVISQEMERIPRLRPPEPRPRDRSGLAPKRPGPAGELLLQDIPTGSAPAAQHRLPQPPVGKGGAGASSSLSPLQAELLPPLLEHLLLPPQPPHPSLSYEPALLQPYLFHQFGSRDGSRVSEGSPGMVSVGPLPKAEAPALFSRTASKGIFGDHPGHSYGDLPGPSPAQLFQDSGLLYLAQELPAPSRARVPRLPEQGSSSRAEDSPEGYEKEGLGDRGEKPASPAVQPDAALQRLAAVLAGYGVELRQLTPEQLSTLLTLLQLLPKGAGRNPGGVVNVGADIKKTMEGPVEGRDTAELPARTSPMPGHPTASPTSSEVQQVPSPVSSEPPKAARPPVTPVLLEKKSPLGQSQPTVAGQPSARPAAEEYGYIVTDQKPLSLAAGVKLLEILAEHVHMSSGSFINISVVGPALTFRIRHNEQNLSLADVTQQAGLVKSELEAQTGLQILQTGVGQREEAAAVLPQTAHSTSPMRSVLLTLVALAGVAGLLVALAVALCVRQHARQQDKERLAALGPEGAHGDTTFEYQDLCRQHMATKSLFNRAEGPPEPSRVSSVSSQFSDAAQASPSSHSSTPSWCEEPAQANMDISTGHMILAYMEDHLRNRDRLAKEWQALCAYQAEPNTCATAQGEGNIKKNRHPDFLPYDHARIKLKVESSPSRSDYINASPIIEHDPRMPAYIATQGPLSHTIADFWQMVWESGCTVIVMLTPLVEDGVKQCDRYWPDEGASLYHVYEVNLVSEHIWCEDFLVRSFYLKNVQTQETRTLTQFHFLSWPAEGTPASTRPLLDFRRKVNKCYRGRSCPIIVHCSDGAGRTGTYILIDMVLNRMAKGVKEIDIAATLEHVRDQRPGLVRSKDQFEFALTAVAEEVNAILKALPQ

B1: mPILRα-Fc (Fc fusion)
chain: not shown
notes: also called mouse PILRα-Fc; WT mPILRα-Fc; not shown: Fc of mouse IgG2a (PILRα-mIgG2a, called PILRα-Fc)
B2: hPILRα-AP (other)
chain: QPSGSTGSGPSYLYGVTQPKHLSASMGGSVEIPFSFYYPWELATAPDVRISWRRGHFHRQSFYSTRPPSIHKDYVNRLFLNWTEGQKSGFLRISNLQKQDQSVYFCRVELDTRSSGRQQWQSIEGTKLSITQAVTTTTQRPSSMTTTWRLSSTTTTTGLRVTQGKRRSDSWHISLET
notes: Used as culture supernatant; also called human PILRα-AP; Alkaline phosphatase (AP)-tagged PILRα construct; not shown: C-terminal alkaline phosphatase (AP) tag

Key:
[1] = molecular target: T1, mouse CD99 expressed on 293T cells; test: flow cytometry, transfected 293T cells, 2 µg/ml; 293T-Neo: 0
[2] = molecular target: T6, human COLEC12 expressed on cells (human, UniProt Q5KU26 1-742); test: as above
T6 construct: also called hCOLEC12; C-terminal his tagged hCOLEC12
T6 sequence (Q5KU26 whole entry S522P/G606S): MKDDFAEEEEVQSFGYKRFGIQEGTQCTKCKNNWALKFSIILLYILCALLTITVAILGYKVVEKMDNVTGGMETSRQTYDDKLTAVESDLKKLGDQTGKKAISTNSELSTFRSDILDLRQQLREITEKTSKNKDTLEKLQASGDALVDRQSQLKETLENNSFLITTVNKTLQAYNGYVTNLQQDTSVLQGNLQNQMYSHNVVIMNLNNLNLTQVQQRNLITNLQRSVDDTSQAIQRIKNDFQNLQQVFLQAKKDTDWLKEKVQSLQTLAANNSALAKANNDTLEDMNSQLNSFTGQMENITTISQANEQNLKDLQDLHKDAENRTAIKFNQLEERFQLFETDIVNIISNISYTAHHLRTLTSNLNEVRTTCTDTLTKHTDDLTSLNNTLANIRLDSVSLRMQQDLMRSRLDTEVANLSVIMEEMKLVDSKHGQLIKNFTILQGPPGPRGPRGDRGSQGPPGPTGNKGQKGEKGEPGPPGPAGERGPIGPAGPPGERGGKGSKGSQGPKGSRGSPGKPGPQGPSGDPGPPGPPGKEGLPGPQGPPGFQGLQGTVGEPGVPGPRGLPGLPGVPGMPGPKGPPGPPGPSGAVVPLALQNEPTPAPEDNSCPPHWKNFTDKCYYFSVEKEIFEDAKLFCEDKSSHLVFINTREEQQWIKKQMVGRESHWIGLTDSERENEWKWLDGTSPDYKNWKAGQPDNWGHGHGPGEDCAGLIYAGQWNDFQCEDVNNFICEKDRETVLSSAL

[3] = molecular target: T2, human NPDC1 expressed on cells; test: as above
PSS8 expressed on cells [4] = molecular target: T7, PSS8 expressed on cells (human, UniProt Q16651 30-343); test: flow cytometry, transfected 293T cells, 50 µg/ml
T7 construct: Clone of the Origene human cDNA library; also called Protease serine 8; prostasin
T7 sequence (Q16651 30-343 limits assumed): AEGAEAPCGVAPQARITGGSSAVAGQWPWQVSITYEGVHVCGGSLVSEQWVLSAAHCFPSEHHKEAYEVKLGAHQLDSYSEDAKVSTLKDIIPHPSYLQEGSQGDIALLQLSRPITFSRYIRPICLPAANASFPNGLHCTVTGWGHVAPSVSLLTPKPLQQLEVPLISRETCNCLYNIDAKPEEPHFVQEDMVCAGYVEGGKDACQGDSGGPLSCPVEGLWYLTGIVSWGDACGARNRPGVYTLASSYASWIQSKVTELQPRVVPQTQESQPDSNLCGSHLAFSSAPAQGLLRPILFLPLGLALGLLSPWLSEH

[5] = molecular target: T3, IL-2Ra expressed on cells; test: flow cytometry, transfected 293T cells, 50 µg/ml
BR3 expressed on cells [6] = molecular target: T4, BR3 expressed on cells; test: flow cytometry, transfected 293T cells, 50 µg/ml
[7] = molecular target: T3, IL-2Ra expressed on cells; test: flow cytometry, transfected 293T cells, 50 µg/ml; remark: listed apart in the source
BR3 expressed on cells [8] = molecular target: T4, BR3 expressed on cells; test: flow cytometry, transfected 293T cells, 50 µg/ml; remark: listed apart in the source
PSS8 expressed on cells [9] = molecular target: T7, PSS8 expressed on cells; test: flow cytometry, transfected 293T cells, 2 µg/ml
[10] = molecular target: T3, IL-2Ra expressed on cells; test: flow cytometry, transfected 293T cells, 2 µg/ml
BR3 expressed on cells [11] = molecular target: T4, BR3 expressed on cells; test: flow cytometry, transfected 293T cells, 2 µg/ml
PTPRN expressed on cells = molecular target: T5, PTPRN expressed on cells; test: cDNA expression library screen with PILRα-AP supernatant on COS7 transfectants; positive clones further analysed by FACS
Description: COS7 cells were plated in a 24-well format and transfected with 10 ul of Origene library DNA (Origene, human DNA library containing 20 k genes) per well with Fugene 6 Reagent. Two days later, cells were incubated with human or mouse PILRα-Ap supernatants for 45 min at room temperature (RT). Then cells were fixed with 4% PFA for 15 min at RT. After removing fixation buffer, cells were blocked with 100 mM Glycine in HBS (20 mM Hepes, PH7.2, 150 mM NaCl) for 15 min at RT. Cells were then rinsed and incubated in HBS for 90 min at 65° C. HBS was removed and Western Blue Substrate (Promega) was added and color was developed for 30 min to 1 hr.

Row | Binder | % cells in lower right quadrant [1] [%] | % cells in lower right quadrant [2] [%] | % cells in lower right quadrant [3] [%] | % cells in lower right quadrant (PSS8 expressed on cells [4]) [%] | % cells in lower right quadrant [5] [%] | % cells in lower right quadrant (BR3 expressed on cells [6]) [%] | % cells in lower right quadrant [7] [%] | % cells in lower right quadrant (BR3 expressed on cells [8]) [%] | % cells in lower right quadrant (PSS8 expressed on cells [9]) [%] | % cells in lower right quadrant [10] [%] | % cells in lower right quadrant (BR3 expressed on cells [11]) [%] | binding result (PTPRN expressed on cells)
1 | B1 | 34 | 0.082 | 29.6 | 30.6 | 55.7 | 53.3 | 55.7 | 53.3 | 0.024 | 14.1 | 34.1 | –
2 | B2 | – | – | – | – | – | – | – | – | – | – | – | binds
